Data on seven molecules can be found in patent US20240279318A1 (NANJING LEGEND BIOTECH, published 2024).

The target in test [1] is T1, AFP158/HLA-A*02:01 complex (human).
T1 construct: biotinylated on the BSP by BirA for ELISA and panning; also called biotinylated AFP158/HLA-A*02:01 complex; Bio-AFP158
Description: SPR, antibody captured via mIgG2a-Fc, complex as analyte. Background: In SPR one partner is held on a chip, and binding of the other changes the refractive index at the surface.
Description: (§1) The binding affinity between selected antibodies and AFP158/HLA-A*02:01 complex was determined by surface plasmon resonance (SPR) on a BIAcore T200 instrument (GE Healthcare). The experiment was carried out as follows. The purified sdAb/scFv-mIgG2aFc protein were captured through mIgG2a-Fc onto the sensorchip. […] On-rate (kₐ) and off-rate (kd) were calculated based on association and dissociation curve, and were used to estimate the equilibrium dissociation constant (KD).

In test [2] the target is T2, CDC14A peptide loaded T2 cells (human, UniProt P61769 21-119).
T2 construct: whole, on cells; also called CDC14A/T2
Description: flow cytometry, peptide-loaded T2 cells. (In general: Flow cytometry measures light scatter and fluorescence of single cells or particles in a stream.)

The target of test [3] is T3, ATG9A peptide loaded T2 cells (human, UniProt P61769 21-119).
T3 construct: whole, on cells; also called ATG9A/T2
Description: flow cytometry, peptide-loaded T2 cells.

Test [4] has as its target T4, OR6C1 peptide loaded T2 cells (human, UniProt P61769 21-119).
T4 construct: whole, on cells; also called OR6C1/T2
Description: flow cytometry, peptide-loaded T2 cells.

For test [5], the target named is T5, OR51B6 peptide loaded T2 cells (human, UniProt P61769 21-119).
T5 construct: whole, on cells; also called OR51B6/T2
Description: flow cytometry, peptide-loaded T2 cells.

For test [6], the target named is T6, RP1 peptide loaded T2 cells (human, UniProt P61769 21-119).
T6 construct: whole, on cells; also called RP1/T2
Description: flow cytometry, peptide-loaded T2 cells.

The target of test [7] is T7, ARNTL peptide loaded T2 cells (human, UniProt P61769 21-119).
T7 construct: whole, on cells; also called ARNTL/T2
Put plainly: flow cytometry, peptide-loaded T2 cells.

The target in test [8] is T8, OR1I1 peptide loaded T2 cells (human, UniProt P61769 21-119).
T8 construct: whole, on cells; also called OR1I1/T2
Put plainly: flow cytometry, peptide-loaded T2 cells.

Test [9] deals with T9, ZNF566 peptide loaded T2 cells (human, UniProt P61769 21-119).
T9 construct: whole, on cells; also called ZNF566/T2
Description: flow cytometry, peptide-loaded T2 cells.

For test [10], the target named is T10, RCL1 peptide loaded T2 cells (human).
T10 construct: whole, on cells; also called RCL1/T2
Put plainly: flow cytometry, peptide-loaded T2 cells.

The target in test [11] is T11, BRCA2 peptide loaded T2 cells (human).
T11 construct: whole, on cells; also called BRCA2/T2
Put plainly: flow cytometry, peptide-loaded T2 cells.

The target in test [12] is T12, NR2E1 peptide loaded T2 cells (human, UniProt P61769 21-119).
T12 construct: whole, on cells; also called NR2E1/T2
Description: flow cytometry, peptide-loaded T2 cells.

Test [13] concerns the target T13, PTP4A1 peptide loaded T2 cells (human, UniProt P61769 21-119).
T13 construct: whole, on cells; also called PTP4A1-pulsed T2 cells
Put plainly: flow cytometry, peptide-loaded T2 cells.

Test [14] has as its target T1, AFP158/HLA-A*02:01 complex. Put plainly: SPR, scFv-mIgG2aFc from supernatant captured, complex as analyte.
Description: as §1
Humanized heavy chains and light chains were combined, and used to produce a series of humanized antibodies. These antibodies were synthesized as scFv-mIgG2aFc and transiently produced using HEK293 cells. The antibodies in the supernatant were subjected to SPR affinity assessment.
The target in test [15] is T1, AFP158/HLA-A*02:01 complex. Description: SPR; vs AS170036 VL1VH1.
The target in test [16] is T1, AFP158/HLA-A*02:01 complex. Description: SPR; vs AS170036 VL1VH1. The source holds these as a separate data set.
The target in test [17] is T1, AFP158/HLA-A*02:01 complex. Description: SPR, crude scFv captured.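 Note: Peptide–MHC complex flowed at several concentrations over sensorchip-captured scFv, Kd derived from on- and off-rates obtained from the association and dissociation curves.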
Test [18] deals with OR1I1 peptide/HLA-A*02:01 complex (recombinant) (human). Description: SPR.
In test [19] the target is ZNF566 peptide/HLA-A*02:01 complex (recombinant) (human). Put plainly: SPR.
Test [20] has as its target BRCA2 peptide/HLA-A*02:01 complex (recombinant) (human). Put plainly: SPR.
In test [21] the target is OR6C1 peptide/HLA-A*02:01 complex (recombinant) (human). Put plainly: SPR.
The target of test [22] is RCL1 peptide/HLA-A*02:01 complex (recombinant) (human, UniProt P16213 21-119 (Pongo pygmaeus entry)). Description: SPR.
Test [23] concerns the target PTP4A1 peptide/HLA-A*02:01 complex (recombinant) (human). Description: SPR.
Test [24] addresses CDC14A peptide/HLA-A*02:01 complex (recombinant) (human). Put plainly: SPR.
Test [25] has as its target ARNTL peptide/HLA-A*02:01 complex (recombinant) (human). Description: SPR.
The target of test [26] is ATG9A peptide/HLA-A*02:01 complex (recombinant) (human). Description: SPR.
The target in test [27] is OR51B6 peptide/HLA-A*02:01 complex (recombinant) (human). Description: SPR.
The target in test [28] is NR2E1 peptide/HLA-A*02:01 complex (recombinant) (human). Put plainly: SPR.
Test [29] has as its target RP1 peptide/HLA-A*02:01 complex (recombinant) (human, UniProt P16213 21-119 (Pongo pygmaeus entry)). Put plainly: SPR.

Where two headings read alike, the source gives them in different places.

B1: AS167830 sdAb-mIgG2aFc (Fc fusion, not shown: a dimerising Fc or GST)
chain: QVKLVESGGGSVQAGGSLRLSCAASRSSEYMNRRFCMGWFRQASGKEREGVAVVYIGGGRTYYADSVKGRFTISQDNAKNTLYLQMNNLKPEDTAMYYCTADVDPYESSWSRDLGYWGQGTQVTVSS
notes: i647-labelled for flow cytometry
Usually Kd stands for the free concentration of one partner at which half of the binding sites on the other are occupied at equilibrium, for simple one-to-one binding. A low value points to higher affinity. The koff is the first-order rate constant of dissociation. The low end stands for a long-lived complex, the high end for a short-lived complex. The kon is a measure of how fast the partners come together. Read a low kon as slow association. As to B1, in test [1], the Kd amounted to 260 nM. For the same molecule, the dissociation rate constant (koff) in test [1] was 0.07 s⁻¹. This molecule gave a kon in [1] of 270000 M⁻¹ s⁻¹. Further, the binding result in test [2], in test [3], in [4], in [5], in test [6] and in test [7] was “no binding (tested: 30 or 50 nM)” in each case. The binding result in [8], in test [9], in [10], in test [11], in [12] and in test [13] was “no binding (tested: 30 or 50 nM)” throughout.

B2: AS190259 scFv-mIgG2aFc (Fc fusion, not shown: a dimerising Fc or GST)
chain: QSVVTQPSAVSVSLEETATITCQGGGYYVNWYQQKPGQAPVLVIYLNTNRPSGIPERFSASKSGGTATLTINGAQAEDEAAYYCQSADSSGNSAVFGGGTHLTVLGGGGSGGGGSGGGGSQVQLVQSGGGLVQPGGSLRLSCAASGFTFSSYAMSWVRQAPGKGLEWVSAINSGGGSTYYADSVKGRFTISRDNAKNTLYLQLNSLKTEDTAMYYCAKAASGYGGSWWGDATLDAWGQGTLVTVSS
notes: Camel scFv; i647-labelled for flow cytometry
In the case of B2, in [1], the Kd came to 390 nM, the koff is 0.14 s⁻¹ and the kon came to 350000 M⁻¹ s⁻¹. In test [14], this molecule returned a Kd of 220 nM, an off-rate constant (koff) of 0.25 s⁻¹ and a kon of 1.1e+06 M⁻¹ s⁻¹.

B3: AS190259 VL1VH1 scFv-mIgG2aFc (Fc fusion, not shown: a dimerising Fc or GST)
chain: SSELTQDPAVSVALGQTVRITCQGGGYYVNWYQQKPGQAPVLVIYLNTNRPSGIPDRFSGSSSGNTASLTITGAQAEDEADYYCQSADSSGNSAVFGGGTKLTVLGGGGSGGGGSGGGGSEVQLVESGGGLVQPGGSLRLSCAASGFTFSSYAMSWVRQAPGKGLEWVSAINSGGGSTYYADSVKGRFTISRDNSKNTLYLQMNSLRAEDTAVYYCAKAASGYGGSWWGDATLDAWGQGTLVTVSS
notes: Humanized
In test [14], B3 gave a Kd of 200 nM, a koff of 0.39 s⁻¹ and a kon of 2e+06 M⁻¹ s⁻¹.

B4: AS190259 VL2VH1 scFv-mIgG2aFc (Fc fusion, not shown: a dimerising Fc or GST; small tags and cut ends)
scFv: SSELTQDPAVSVALGQTVTITCQGGGYYVNWYQQKPGQAPVLVIYLNTNRPSGIPDRFSGSSSGNTASLTITGAQAEDEAAYYCQSADSSGNSAVFGGGTKLTVLGGGGSGGGGSGGGGSEVQLVESGGGLVQPGGSLRLSCAASGFTFSSYAMSWVRQAPGKGLEWVSAINSGGGSTYYADSVKGRFTISRDNSKNTLYLQMNSLRAEDTAVYYCAKAASGYGGSWWGDATLDAWGQGTLVTVSS
B4: in test [14], the dissociation constant (Kd) turned out to be 220 nM, the koff was found to be 0.3 s⁻¹ and the kon was found to be 1.4e+06 M⁻¹ s⁻¹.

B5: AS170036 VL1VH1-VHS57Q (scFv)
scFv: QSALTQPRSVSGSPGQSVTISCAGTSSDVGSENYVSWYQQHPGKAPKLMIYQVNKRASGVPDRFSGSKSGNTASLTISGLQAEDEADYYCASYRSSDHNIVFGGGTKLTVLGGGGSGGGGSGGGGSEVQLVESGGGLVQPGGSLRLSCAASGFTFSSYAMSWVRQAPGKGLEWVSTINSGTGQPYYADSVKGRFTISRDNSKNTLYLQMNSLRAEDTAVYYCAKNFFDGSWFLGPPAMDYWGQGTLVTVSSHHHHHH
On to B5, for which the results for the Affinity increase in test [15] and in [16] were 2.4 fold and greater than 2 fold, respectively. The same molecule yielded a dissociation constant (Kd) in test [17] of 100 nM. The binding result in [18], in test [19], in [20], in test [21], in [22] and in [23] was “no binding” each time. Moreover, the binding result in test [24], in test [25], in test [26], in test [27], in test [28] and in test [29] was “no binding” in each case.

B6: AS170036 VL1VH1-VHS57R (scFv)
scFv: QSALTQPRSVSGSPGQSVTISCAGTSSDVGSENYVSWYQQHPGKAPKLMIYQVNKRASGVPDRFSGSKSGNTASLTISGLQAEDEADYYCASYRSSDHNIVFGGGTKLTVLGGGGSGGGGSGGGGSEVQLVESGGGLVQPGGSLRLSCAASGFTFSSYAMSWVRQAPGKGLEWVSTINSGTGRPYYADSVKGRFTISRDNSKNTLYLQMNSLRAEDTAVYYCAKNFFDGSWFLGPPAMDYWGQGTLVTVSSHHHHHH
For B6, the Affinity increase in test [15] was 2.8 fold; in test [16], greater than 2 fold. The molecule also yielded a Kd in test [17] of 88 nM. Further, the binding result in test [18], in test [19], in test [20], in test [21], in test [22] and in test [23] was “no binding” throughout. The binding result in [24], in test [25], in test [26], in test [27], in [28] and in test [29] was “no binding” in each case.

B7: AS148691 scFv-mIgG2aFc (Fc fusion, not shown: a dimerising Fc or GST)
chain: DIQMTQSPSSLSASVGDRVTITCRASQSVSSAVAWYQQKPGKAPKLLIYSASSLYSGVPSRFSGSRSGTDFTLTISSLQPEDFATYYCQQYYGAYLITFGQGTKVEIKGGGGSGGGGSGGGGSEVQLVESGGGLVQPGGSLRLSCAASGFNLYYSSIHWVRQAPGKGLEWVASIYSSYGSTSYADSVKGRFTISADTSKNTAYLQMNSLRAEDTAVYYCARVGPGYYGIDYWGQGTLVTVSS
notes: as for B1
For B7, the Kd in test [1] came out at 71 nM. In addition, the dissociation rate constant (koff) in [1] is 0.005 s⁻¹. Besides, the kon in test [1] was found to be 71000 M⁻¹ s⁻¹. For the same molecule, the binding result in test [2], in [3], in test [4], in test [5], in test [6] and in test [7] was “no binding (tested: 30 or 50 nM)” in each case. Moreover, the binding result in test [8], in test [9], in test [10], in test [11], in test [12] and in [13] was “no binding (tested: 30 or 50 nM)” each time.
